From paper PMC3281039, “Tetrahydrodipicolinate N-Succinyltransferase and Dihydrodipicolinate Synthase from Pseudomonas aeruginosa: Structure Analysis and Gene Deletion” (PLoS ONE, 2012)

Tests used:
[1] = biological target: T1, tetrahydrodipicolinate N-succinyltransferase (DapD, PA3666) (Pseudomonas aeruginosa, UniProt G3XD76); test: crystal structure at […] Å (co-crystallization), with succinate; type: binding; design: recombinant DapD; model residues 1–245 and 251–343
T1 sequence (G3XD76 1-344): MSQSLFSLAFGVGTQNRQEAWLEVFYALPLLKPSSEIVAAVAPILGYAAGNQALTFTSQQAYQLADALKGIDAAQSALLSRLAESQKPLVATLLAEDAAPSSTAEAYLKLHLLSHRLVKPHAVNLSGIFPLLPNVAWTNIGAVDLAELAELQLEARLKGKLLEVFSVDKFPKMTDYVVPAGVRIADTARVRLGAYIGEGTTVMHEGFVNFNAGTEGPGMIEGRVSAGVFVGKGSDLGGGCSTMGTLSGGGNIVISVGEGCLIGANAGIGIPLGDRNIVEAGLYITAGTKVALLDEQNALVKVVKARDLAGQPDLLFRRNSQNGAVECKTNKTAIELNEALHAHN

[2] = biological target: T1, tetrahydrodipicolinate N-succinyltransferase (DapD, PA3666); test: crystal structure at […] Å (soaking); IC50 in DTNB succinyltransferase assay; type: biochemical; design: recombinant DapD with Gly-Ser-His at the N-terminus after thrombin cleavage; residues 330–344 not modeled
[3] = biological target: T1, tetrahydrodipicolinate N-succinyltransferase (DapD, PA3666); test: crystal structure at […] Å with CoA; succinate from […] in the crystallization buffer; type: binding; design: recombinant DapD; model residues 1–245 and 251–343
[4] = biological target: Tetrahydrodipicolinate N-succinyltransferase (DapD, PA3666) from Pseudomonas aeruginosa (Pseudomonas aeruginosa PAO1); test: crystal structure; PaDapD, hanging drops, 19-20% PEG3350, 0.3-0.4 M succinate pH 6.2; tetragonal P4(1)2(1)2 (apo, CoA-succinate) and monoclinic P2(1) (apo, L-2AP, D-2AP) crystal forms
[5] = biological target: Tetrahydrodipicolinate N-succinyltransferase (DapD, PA3666) from Pseudomonas aeruginosa (Pseudomonas aeruginosa PAO1); test: SEC; analytical size exclusion chromatography, Superdex-200 10/30, 25 mM Tris-HCl pH 8.0, 150 mM NaCl; calibrated with chymotrypsinogen-A, ovalbumin, albumin, catalase, ferritin
purified protein = substrate: N[C@@H](CCCCC(=O)O)C(=O)O; test: purified protein; type: biochemical, Pseudomonas aeruginosa; settings: active site groove between two subunits of the homotrimer; two arginines (Arg181, Arg193), Asn209, Ala226, Glu221
[6] = biological target: the molecule itself; test: SEC; analytical size exclusion chromatography, Superdex-200 10/30, 25 mM Tris-HCl pH 8.0, 150 mM NaCl; calibrated with chymotrypsinogen-A, ovalbumin, albumin, catalase, ferritin

CC(C)(COP(=O)(O)OP(=O)(O)OC[C@H]1O[C@@H](n2cnc3c(N)ncnc32)[C@H](O)[C@@H]1OP(=O)(O)O)[C@@H](O)C(=O)NCCC(=O)NCCS [CoA, coenzyme A]
crystal structure at 2.40 Å (co-crystallization), with succinate [1]: Coenzyme A is bound in this narrow cleft formed at the interface of two adjacent subunits

N[C@H](CCCCC(=O)O)C(=O)O [D-2AP, D-2-aminopimelate]
IC50 [2]: > 20 mM

O=C(O)CCC(=O)O [succinate]
crystal structure at 2.40 Å with CoA; succinate from 0.4 M in the crystallizatio [3]: contains a succinate molecule bound next to the acceptor arm of the CoA in the active site cleft

Tetrahydrodipicolinate N-succinyltransferase (DapD, PA3666) from Pseudomonas aeruginosa (enzyme)
stoichiometry N [4]: 3
stoichiometry N [5]: 3

B1: tetrahydrodipicolinate N-succinyltransferase (DapD, PA3666) (Pseudomonas aeruginosa PAO1) (protein)
chain: T1 sequence (G3XD76 1-344)
notes: recombinant DapD with Gly-Ser-His at the N-terminus after thrombin cleavage; residues 330–344 not modeled
Km (purified protein): 7.0 mM

B2: Dihydrodipicolinate synthase (DapA, PA1010) from Pseudomonas aeruginosa (enzyme, Pseudomonas aeruginosa PAO1)
chain: MIAGSMVALVTPFDAQGRLDWDSLAKLVDFHLQEGTNAIVAVGTTGESATLDVEEHIQVIRRVVDQVKGRIPVIAGTGANSTREAVALTEAAKSGGADACLLVTPYYNKPTQEGMYQHFRHIAEAVAIPQILYNVPGRTSCDMLPETVERLSKVPNIIGIKEATGDLQRAKEVIERVGKDFLVYSGDDATAVELMLLGGKGNISVTANVAPRAMSDLCAAAMRGDAAAARAINDRLMPLHKALFIESNPIPVKWALHEMGLIPEGIRLPLTWLSPRCHEPLRQAMRQTGVLA
notes: Dihydrodipicolinate synthase DapA, locus PA1010, Pseudomonas aeruginosa PAO1; the gene coding for DapA was cloned in pNIC28Bsa4 by LIC; the final model holds residues 1-291 (chain A) and 2-291 (chains B, C, D); N-terminal His6 tag with TEV site from vector pNIC28Bsa4 (GenBank EF198106); also called PaDapA; source: E. coli BL21(DE3), purified (Ni-NTA, Sephadex G-25 desalting); not shown: His6, …
stoichiometry N [6]: 2
